These results are taken from patent US20210130452A1 (Merck KGaA, published 2021).

Broadly, the koff is the rate constant with which the complex falls apart. A low value points to slow dissociation.

The target of test [1] is T1, human IL-17F (human, UniProt Q96PD4 31-163).
T1 construct: made in Hek293 cells (GenBank AF384857); also called hIL-17F; hIL17F
T1 sequence: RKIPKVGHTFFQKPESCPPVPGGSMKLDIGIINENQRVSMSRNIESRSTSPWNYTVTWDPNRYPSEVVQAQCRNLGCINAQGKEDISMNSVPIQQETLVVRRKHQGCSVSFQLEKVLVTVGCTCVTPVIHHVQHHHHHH
Put plainly: SPR (Biacore) off-rate. On the technique in general: In SPR one partner is held on a chip, and binding of the other changes the refractive index at the surface.

Test [2] has as its target T2, human IL-17A/F heterodimer (human, UniProt Q16552 24-155; Q96PD4 31-163, limits assumed).
T2 construct: bought, made in E. coli (R&D Systems 5194-IL/CF); also called hIL-17A/F; hIL17A/F
Put plainly: SPR (Biacore) off-rate.

The target of test [3] is T3, human IL-17A (human, UniProt Q16552 24-155).
T3 construct: secreted form made in Hek293 cells (GenBank U32659); also called hIL-17A; hIL17A
Put plainly: SPR (Biacore) off-rate.
T3 sequence (Q16552 other isoform, or with tags, fused parts or gaps): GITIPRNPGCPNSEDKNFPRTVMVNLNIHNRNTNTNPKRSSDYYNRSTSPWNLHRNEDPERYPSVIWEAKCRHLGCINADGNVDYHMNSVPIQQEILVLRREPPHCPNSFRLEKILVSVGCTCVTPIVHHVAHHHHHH

The target in test [4] is T4, human IL-17D (human, UniProt Q8TAD2 18-202, limits assumed).
T4 construct: expressed in E. coli; also called hIL-17D
T4 sequence (looked up): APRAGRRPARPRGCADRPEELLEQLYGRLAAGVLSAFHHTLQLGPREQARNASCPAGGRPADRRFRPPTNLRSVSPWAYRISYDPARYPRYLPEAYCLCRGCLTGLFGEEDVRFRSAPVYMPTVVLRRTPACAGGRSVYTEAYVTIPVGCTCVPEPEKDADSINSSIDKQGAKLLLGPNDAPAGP
The test is described as follows: SPR, cytokine on chip.
From the text: (§1) Human IL-17B, IL-17C, IL-17D or IL-17E were all expressed in E. coli, and covalently bound to a CM sensor chip surface via amine coupling using EDC/NHS for activation and HCl for deactivation.
(§2) Next, binding buffer was sent over the chip at the same flow rate to allow spontaneous dissociation of bound Nanobody or antibody.

Test [5] has as its target T5, human IL-17B (human, UniProt Q9UHF5 21-180).
T5 construct: expressed in E. coli; also called hIL-17B
T5 sequence (looked up): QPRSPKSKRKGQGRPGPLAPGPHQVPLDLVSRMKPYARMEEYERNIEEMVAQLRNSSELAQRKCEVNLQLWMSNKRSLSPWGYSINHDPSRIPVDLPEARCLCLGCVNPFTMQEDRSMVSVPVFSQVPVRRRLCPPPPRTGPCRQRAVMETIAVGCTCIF
Put plainly: SPR, cytokine on chip.
From the text: as §1, §2

The target of test [6] is T6, human IL-17C (human, UniProt Q9P0M4 19-197).
T6 construct: expressed in E. coli; also called hIL-17C
T6 sequence (looked up): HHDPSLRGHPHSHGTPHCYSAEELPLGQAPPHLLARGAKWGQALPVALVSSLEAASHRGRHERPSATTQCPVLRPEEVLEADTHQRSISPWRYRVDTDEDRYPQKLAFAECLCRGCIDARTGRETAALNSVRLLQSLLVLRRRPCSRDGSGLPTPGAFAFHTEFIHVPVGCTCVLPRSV
Put plainly: SPR, cytokine on chip.
From the text: as §1, §2

Test [7] addresses T7, human IL-17E (human, UniProt Q9H293 33-177).
T7 construct: expressed in E. coli; also called hIL-17E
T7 sequence (looked up): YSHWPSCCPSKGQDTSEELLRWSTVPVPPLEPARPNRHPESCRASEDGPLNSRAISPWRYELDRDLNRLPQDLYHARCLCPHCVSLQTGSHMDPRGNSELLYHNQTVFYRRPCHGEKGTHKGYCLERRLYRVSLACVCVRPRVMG
The test is described as follows: SPR, cytokine on chip.
From the text: as §1, §2

The target of test [8] is T8, rat IL-17F (rat, UniProt Q5BJ95 29-161).
T8 sequence (looked up): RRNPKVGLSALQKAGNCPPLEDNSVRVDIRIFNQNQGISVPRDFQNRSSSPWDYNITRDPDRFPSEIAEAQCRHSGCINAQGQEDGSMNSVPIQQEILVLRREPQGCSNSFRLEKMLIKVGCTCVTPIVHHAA
Put plainly: binding ELISA. For orientation: In an ELISA, binding on a coated surface is turned into a signal by an enzyme label.
Method: (§3) Binding of a selected panel of anti-IL-17 Nanobodies to IL-17 of other species was assessed using a binding ELISA. […] HRP (horseradish peroxidase) conjugated anti-myc (Serotec, MCA 2200P) was used for detection using esTMB as substrate.

Test [9] addresses T9, mouse IL-17F (mouse, UniProt Q7TNI7 29-161).
T9 sequence (looked up): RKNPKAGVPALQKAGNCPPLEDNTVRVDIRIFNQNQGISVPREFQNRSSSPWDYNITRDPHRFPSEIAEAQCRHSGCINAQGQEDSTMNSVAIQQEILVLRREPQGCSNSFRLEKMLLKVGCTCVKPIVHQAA
Put plainly: binding ELISA.
Method: as §3

The target in test [10] is guinea pig IL-17A (guinea pig). Put plainly: ELISA, coated IL-17A.
Method: as §3
In test [11] the target is T10, mouse IL-17A (mouse, UniProt Q62386 26-158).
T10 sequence (looked up): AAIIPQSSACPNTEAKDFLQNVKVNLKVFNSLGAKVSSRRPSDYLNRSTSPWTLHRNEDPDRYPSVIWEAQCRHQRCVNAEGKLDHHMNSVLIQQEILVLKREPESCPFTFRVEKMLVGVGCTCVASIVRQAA
The test is described as follows: ELISA, coated IL-17A.
Method: as §3

The target in test [12] is T11, rat IL-17A (rat, UniProt Q61453 18-150, limits assumed).
T11 sequence (looked up): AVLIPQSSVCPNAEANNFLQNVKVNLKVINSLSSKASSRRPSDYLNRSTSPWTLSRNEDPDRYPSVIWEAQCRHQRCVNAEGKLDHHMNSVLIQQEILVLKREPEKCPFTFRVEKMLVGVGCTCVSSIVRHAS
Put plainly: ELISA, coated IL-17A.
Method: as §3

In test [13] the target is T12, marmoset IL-17A (marmoset, IL-17A is a disulfide-linked homodimer. One chain is given.).
T12 chain: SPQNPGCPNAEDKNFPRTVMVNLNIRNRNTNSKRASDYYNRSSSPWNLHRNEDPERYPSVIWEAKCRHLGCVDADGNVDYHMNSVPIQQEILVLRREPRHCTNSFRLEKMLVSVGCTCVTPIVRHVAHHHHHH
Put plainly: ELISA, coated IL-17A.
Method: as §3

Test [14] concerns the target T13, human IL-17A (human, UniProt Q16552 24-155).
T13 construct: secreted form (GenBank U32659) expressed in Hek293 with C-terminal 6-His; also called hIL-17A; IL-17A-6HIS
The test is described as follows: ELISA, coated IL-17A.
T13 sequence (Q16552 other isoform, or with tags, fused parts or gaps): as the sequence (Q16552 other isoform, or with tags, fused parts or gaps) above
Method: as §3

For test [15], the target named is T13, human IL-17A. Put plainly: SPR, IL-17A-Nanobody complex over captured IL-17RA.
From the text: The receptor (IL-17RA or IL-17RC) was captured via its human Fc-tail by an anti-human IgG-Fc antibody coated on the chip.
The target in test [16] is T14, rat IL-17F (rat, UniProt Q5BJ95 29-161).
T14 sequence (looked up): T8 sequence (looked up)
The test is described as follows: ELISA, coated IL-17F.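 Note: binding ELISA on coated antigen from various species, with bound Nanobodies revealed by an HRP-linked anti-myc antibody and esTMB substrate.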
Method: as §3

Test [17] addresses T15, mouse IL-17F (mouse, UniProt Q7TNI7 29-161).
T15 sequence (looked up): T9 sequence (looked up)
Put plainly: ELISA, coated IL-17F.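 Note: binding ELISA on coated antigen from various species, with bound Nanobodies revealed by an HRP-linked anti-myc antibody and esTMB substrate.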
Method: as §3

Positions count from the first letter of the chain named.

T2 sequence (Q16552 24-155 limits assumed, chain 1 of 2, one chain of several): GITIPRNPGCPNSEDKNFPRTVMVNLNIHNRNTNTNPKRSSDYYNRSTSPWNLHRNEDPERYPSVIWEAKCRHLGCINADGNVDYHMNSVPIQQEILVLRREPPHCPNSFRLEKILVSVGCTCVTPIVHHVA

B1: IL17MS3043 (VHH)
VHH: EVQLVESGGGSVQPGGSLRLSCAASGRANSINWFGWFRQTPGKEREFVAGIRWSDAYTEYANSVKGRFTISRDNSKNTVYLQMDSLRPEDTAVYYCVLDLSTVRYWGQGTLVTVSS
notes: variant of IL17MS13B03; Kabat numbering
As to B1, the koff in test [1] stood at 0.00811 s⁻¹; in [2], 0.000585 s⁻¹; in test [3], 0.000276 s⁻¹.

B2: IL17MS3046 (VHH)
VHH: B1 VHH with G16D, N62A, Y80D
notes: as for B1
For B2, the koff in [1] amounted to 0.00848 s⁻¹; in test [2], 0.000515 s⁻¹; in test [3] it was 0.000281 s⁻¹.

B3: IL17MS3044 (VHH)
VHH: B1 VHH with S11L, G16D, Y80D
notes: as for B1
Consider B3, for which the koff was 0.00776 s⁻¹ in test [1], 0.000253 s⁻¹ in test [2] and 0.000212 s⁻¹ in [3].

B4: IL17MS3048 (VHH)
VHH: B1 VHH with G16D, Y80D, D84N
notes: as for B1
Turning to B4, the figures for the koff in test [1], in [2] and in [3] were 0.00874 s⁻¹, 0.000665 s⁻¹ and 0.000295 s⁻¹, respectively.

B5: IL17MS3050 (VHH)
VHH: B1 VHH with Y80D
notes: as for B1
With B5, the koff worked out at 0.00855 s⁻¹ in test [1], 0.000575 s⁻¹ in test [2] and 0.000267 s⁻¹ in [3].

B6: IL17MS3045 (VHH)
VHH: B1 VHH with G16D, T40A, Y80D
notes: as for B1
With B6, the koff in test [1] worked out at 0.00794 s⁻¹; in [2], 0.000616 s⁻¹; in test [3], 0.00027 s⁻¹.

B7: IL17MS3049 (VHH)
VHH: B1 VHH with G16D, T40A
notes: as for B1
Regarding B7, the koff in [1] was found to be 0.00757 s⁻¹; in test [2], 0.000248 s⁻¹; in test [3] it was 0.00015 s⁻¹.

B8: 16A04 (VHH)
VHH: EVQLVESGGGLVQAGGSLRLSCAASGRTFSSYVVGWFRQAPGKEREFIGAISGSGDSIYYAVSEKDRFTISRDNGKNTLYLQMSSLKAEDTAVYYCTADQEFGYLRFGRSEYWGQGTQVTVSS
notes: Class 3; also called IL17MS16A04
With B8, the binding result is “no binding” in [4]; “no binding” in test [5]; “no binding” in [6]; “no binding” in test [7]; “no binding (tested: 250 nM)” in test [8]; “no binding (tested: 250 nM)” in test [9].

B9: 03C07 (VHH)
VHH: EVQLVESGGGLVQAGGSLRLSCAASGFTFDDYAIGWFRQAPGKEREAVSCFSSSDGSIYYADSVKGRFTISSDNAKNTVYLQMNSLKPEDTAVYYCAGGGGSYYYTQLNYCYDMDYWGKGTQVTVSS
notes: Class 2
With B9, the OD in [10] was 0.004 OD; in test [11] it was -0.004 OD; in test [12], 0.003 OD; in [13], 1.7 OD; in [14], 1.7 OD; in test [16] it was 0.0015 OD. The OD in test [17] is 0.0005 OD. Besides, in test [15], the “% Biacore binding (IL-17A-NB)-IL-17RA” value was -0.08%.

B10: 02A08 (VHH)
VHH: EVQLVESGGGVVQPGGSLRLSCADSERSFSFNAMGWFRQAPGKEREFVAAISATGDDTYYADSVKGRFAISRDTARNTVYLQMNSLKPEDTAVYYCGARVNFDGTVSYTNDYAYWGQGTQVTVSS
notes: Class 2
Regarding B10, the OD is 0.002 OD in test [10]; -0.001 OD in [11]; 0.002 OD in test [12]; 1.95 OD in [13]; 1.95 OD in test [14]; 0.0035 OD in [16]. Also, the “% Biacore binding (IL-17A-NB)-IL-17RA” value in [15] worked out at 0.46%.

B11: 06E11 (VHH)
VHH: EVQLVESGGGLVQAGGSLRLSCPVSGRAFSRGRLGWFRQAPGKEREFVAVAHWSGAITSYADSVKGRFTFSRDNAKNTMNLQMNSLKPEDTAVYYCAADSETSGNWVYWGQGTQVTVSS
notes: Class 3
For the molecule B11, the binding result in test [4] was “no binding”; in test [5], “no binding”; in test [6] it was “no binding”; in test [7], “no binding”; in test [8] it was “no binding (tested: 250 nM)”; in test [9], “no binding (tested: 250 nM)”.

B12: 11C08 (VHH)
VHH: EVQLVESGGGLVQAGGSLRLSCAASGVIFRLNAMGWYRAAPGKQRELVAIIVNGGSTNYADSVKGRFTISRDSAKNAVYLQMNSLKPEDTAVYYCYYNIPGDVYWGQGTQVTVSS
notes: Class 4
B12: the OD was 0.002 OD in test [10]; -0.005 OD in test [11]; 0.002 OD in test [12]; 0.671 OD in [13]; 1.71 OD in test [14]; 0.0005 OD in test [16]. The molecule further gave an OD in test [17] of -0.0025 OD. Besides, the “% Biacore binding (IL-17A-NB)-IL-17RA” value in [15] was found to be 3.25%.

B13: 13B05 (VHH)
VHH: EVQLVESGGRLVQAGGSLRLSCAASGRTFTSYPMGWFRQAPGKEREFVAAISMSGDDTAYTDFVRGRFTISRDDARNTVYLHMTSLKPEDTAVYYCAARTSYDGTYDYIDDYSYWGQGTQVTVSS
notes: Class 4
Take B13: the OD in [10] was 0.001 OD; in [11] it was -0.006 OD; in test [12], 0.003 OD; in test [13] it was 1.91 OD; in [14], 1.82 OD; in [16], 0.0095 OD. Further, the OD in [17] is 0.0205 OD. For the same molecule, the “% Biacore binding (IL-17A-NB)-IL-17RA” value in test [15] is -0.89%.

B14: 13E05 (VHH)
VHH: EVQLVESGGGKVQAGDSLTLSCVASGGTFSNYAAWFRQAPGKDRRELVVSIFRTGSITYTADSVKGRFTASRVNTKNTVYLQMNSLKPEDTAVYYCASAYNPGVGYDYWGQGTQVTVSS
notes: Class 4
Regarding B14, the OD worked out at 0.006 OD in test [10]; 0.004 OD in test [11]; 0.003 OD in test [12]; 1.89 OD in test [13]; 1.96 OD in test [14]; 0.0025 OD in test [16]. Moreover, the OD in test [17] turned out to be 0.0005 OD. In test [15], the “% Biacore binding (IL-17A-NB)-IL-17RA” value is 0.54%.
